From paper PMC8034850, “A cell-based screening method using an intracellular antibody for discovering small molecules targeting the translocation protein LMO2” (Science Advances, 2021)

Tests used:
Assay type in all cases: cell-based
[1] = biological target: T1, LMO2-iDAb LMO2dm3 interaction (Homo sapiens, UniProt P25791); assay: BRET competition / dose-response assay on LMO2-iDAb LMO2dm3; conditions: HEK-293T, HEK293T, Fig. 4C
T1 construct: LMO2 cDNA was cloned into the pEF-RLuc8-MCS and pEF-MCS-RLuc8 plasmids; expressed in transfected cells; host or cells: HEK293T
T1 sequence (P25791 1-158): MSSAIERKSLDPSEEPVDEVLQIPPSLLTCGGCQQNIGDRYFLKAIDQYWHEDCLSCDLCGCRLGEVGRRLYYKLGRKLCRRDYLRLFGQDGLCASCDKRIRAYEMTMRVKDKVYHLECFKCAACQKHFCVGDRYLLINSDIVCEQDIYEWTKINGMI
Method: (§1) For all BRET experiments (titration curves and competition assays), 650,000 HEK293T were seeded in each well of six-well plates. After 24 hours at 37°C, cells were transfected with a total of 1.6 μg of DNA mix, containing the donor + acceptor ± competitor plasmids, using Lipofectamine 2000 transfection reagent (Thermo Fisher Scientific). For the BRET donor saturation assays, cells were transfected with 0.05 μg of donor (LMO2) and with an increased amount of acceptor plasmid (0.025, 0.05, 0.1, 0.25, 0.5, 0.75, and/or 1 μg of DNA) equalized to a total amount of 1.6 μg of DNA with an empty vector pEF-cyto-myc. […] Cells were detached 24 hours later, washed with phosphate-buffered saline (PBS), and seeded in a white 96-well plate (clear bottom, PerkinElmer, catalog no. 6005181) in Opti-MEM without phenol red medium complemented with 4% FBS, and cells were incubated for an additional 20 to 24 hours at 37°C before the BRET assay reading. […]
(§2) BRET2 signal was determined immediately after injection of coelenterazine 400a substrate (10 μM final concentration) to cells (Cayman Chemicals) using a CLARIOstar instrument (BMG Labtech) with a luminescence module. Total GFP^2 fluorescence was detected with excitation and emission peaks set at 405 and 515 nm, respectively. Total RLuc8 luminescence was measured with the luminescence 400- to 700-nm wavelength filter. […]

[2] = biological target: T2, LMO2-LDB1 interaction (Homo sapiens, UniProt P25791); assay: BRET assay on LMO2-LDB1; conditions: BRET competition, fig. S7E
T2 construct: LMO2 cDNA was cloned into the pEF-RLuc8-MCS and pEF-MCS-RLuc8 plasmids; expressed in transfected cells; host or cells: HEK293T
T2 sequence (P25791 1-158): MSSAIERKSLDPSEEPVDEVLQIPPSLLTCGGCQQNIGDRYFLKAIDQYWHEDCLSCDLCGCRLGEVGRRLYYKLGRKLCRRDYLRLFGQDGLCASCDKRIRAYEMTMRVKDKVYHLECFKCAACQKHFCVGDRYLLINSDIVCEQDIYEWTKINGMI
Method: as §1, §2

[3] = biological target: T3, LMO2-TAL1 + E47 interaction (Homo sapiens, UniProt P25791); assay: BRET assay on LMO2-TAL1 + E47; conditions: BRET competition, fig. S7D
T3 construct: LMO2 cDNA was cloned into the pEF-RLuc8-MCS and pEF-MCS-RLuc8 plasmids; expressed in transfected cells; host or cells: HEK293T
T3 sequence (P25791 1-158): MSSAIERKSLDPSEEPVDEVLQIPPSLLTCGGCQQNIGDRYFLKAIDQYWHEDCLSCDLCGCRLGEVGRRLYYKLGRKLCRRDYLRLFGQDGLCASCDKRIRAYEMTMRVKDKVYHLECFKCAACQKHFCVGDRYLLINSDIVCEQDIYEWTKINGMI
Method: as §1, §2

[4] = biological target: T4, LMO2 (Homo sapiens, UniProt P25791); assay: Single-dose BRET competition of LMO2-RLuc8 and GFP2-iDAb LMO2dmx by unmutated iDAb LMO2; conditions: lowest dose of competitor 0.1 μg, label = GFP2-iDAb acceptor, Fig. 2D
T4 construct: LMO2 cDNA was cloned into the pEF-RLuc8-MCS and pEF-MCS-RLuc8 plasmids; expressed in transfected cells; host or cells: HEK293T
T4 sequence (P25791 1-158): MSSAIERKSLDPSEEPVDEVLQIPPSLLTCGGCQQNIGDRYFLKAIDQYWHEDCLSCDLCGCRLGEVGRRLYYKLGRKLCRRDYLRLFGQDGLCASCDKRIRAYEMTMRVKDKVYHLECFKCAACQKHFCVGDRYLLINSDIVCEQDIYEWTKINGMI

Molecule: COc1ccc(CN2CCN(c3nc(C(=O)Nc4ccc(-n5cccc5)cc4)co3)CC2)cc1 [Abd-L19]
- inhibition at 20 µM [1]: 45%

B1: iDAb LMO2: intracellular VH single domain antibody binding to LMO2 (antibody, V domains shown)
VH: EVQLLESGGGLVQPGGSLRLSCAASGFSFSHSPMNWVRQAPGKGLEWVSYISYNSSSIYYADSVKGRFTISRDNSKNTLYLQMNSLRAEDTAVYYCARGLTESLELTADWFDYWGQGTLVTVSS
- effect of coexpressed nontagged iDAb on LMO2-LDB1 BRET signal [2]: inhibited BRET signal
- effect of coexpressed nontagged iDAb on LMO2-TAL1 + E47 BRET signal [3]: inhibited BRET signal

B2: iDAb LMO2dm3: iDAb LMO2 mutant S28G, H31G, S55A, E102A, T107A, chosen for the screen (antibody, V domains shown)
VH: EVQLLESGGGLVQPGGSLRLSCAASGFGFSGSPMNWVRQAPGKGLEWVSYISYNASSIYYADSVKGRFTISRDNSKNTLYLQMNSLRAEDTAVYYCARGLTASLELAADWFDYWGQGTLVTVSS
- percentage inhibition by iDAb LMO2 compared to iDAb Ctl of the interaction of the labelled acceptor iDAb with LMO2 [4]: ~ 90%
